Reference: US20240336672A1

How the values were obtained:
Details in all cases: remark: other sources report otherwise
[1] = target: SARS-CoV-2 RBD (B.1.351) domain (SARS-CoV-2); experiment: competition ELISA, biotinylated RBD to immobilized ACE2 ectodomain
[2] = target: SARS-CoV-2 RBD (B.1.1.7) domain (SARS-CoV-2); experiment: as above
[3] = target: SARS-CoV-2 RBD (P.1) domain (SARS-CoV-2); experiment: as above
[4] = target: T1, SARS-CoV-2 Spike ectodomain (tri-S), Wuhan (SARS-CoV-2), P0DTC2; experiment: competition ELISA vs bio-Cv2.1353
[5] = target: T1, SARS-CoV-2 Spike ectodomain (tri-S), …; experiment: tri-S capture ELISA
[6] = target: SARS-CoV-2 RBD (B.1.351) domain (SARS-CoV-2); experiment: ELISA; set-up: unit not given beside the values
[7] = target: T1, SARS-CoV-2 Spike ectodomain (tri-S), …; experiment: ELISA; set-up: unit not given beside the values
[8] = target: SARS-CoV-2 RBD (B.1.1.7) domain (SARS-CoV-2); experiment: ELISA; set-up: unit not given beside the values
[9] = target: SARS-CoV-2 RBD (P.1) domain (SARS-CoV-2); experiment: ELISA; set-up: unit not given beside the values
[10] = target: SARS-CoV-2 RBD (B.1.351) domain (SARS-CoV-2); experiment: RBD-ACE2 competition ELISA; set-up: unit not given beside the values
[11] = target: SARS-CoV-2 RBD (B.1.1.7) domain (SARS-CoV-2); experiment: RBD-ACE2 competition ELISA; set-up: unit not given beside the values
[12] = target: SARS-CoV-2 RBD (P.1) domain (SARS-CoV-2); experiment: RBD-ACE2 competition ELISA; set-up: unit not given beside the values
[13] = target: T1, SARS-CoV-2 Spike ectodomain (tri-S), …; experiment: tri-S/ACE2 blocking ELISA
[14] = target: T1, SARS-CoV-2 Spike ectodomain (tri-S), …; experiment: competition ELISA vs bio-Cv2.5213
[15] = target: T1, SARS-CoV-2 Spike ectodomain (tri-S), …; experiment: tri-S/ACE2 blocking ELISA [B]
[16] = target: SARS-CoV-2 RBD (B.1.351) domain (SARS-CoV-2); experiment: ELISA; set-up: unit not given beside the values; remark: listed apart in the source
[17] = target: SARS-CoV-2 RBD (B.1.1.7) domain (SARS-CoV-2); experiment: ELISA; set-up: unit not given beside the values; remark: listed apart in the source
[18] = target: SARS-CoV-2 RBD (P.1) domain (SARS-CoV-2); experiment: ELISA; set-up: unit not given beside the values; remark: listed apart in the source
[19] = target: T1, SARS-CoV-2 Spike ectodomain (tri-S), …; experiment: competition ELISA vs bio-Cv2.1169
[20] = target: T1, SARS-CoV-2 Spike ectodomain (tri-S), …; experiment: SPR (Biacore), antibody coupled to CM5 chip, viral protein as analyte
[21] = target: T1, SARS-CoV-2 Spike ectodomain (tri-S), …; experiment: competition ELISA vs bio-Cv2.3194
[22] = target: T1, SARS-CoV-2 Spike ectodomain (tri-S), …; experiment: ELISA, coated antigen
[23] = target: SARS-CoV-2 RBD (B.1.351) domain (SARS-CoV-2); experiment: RBD/ACE2 blocking ELISA
[24] = target: SARS-CoV-2 RBD (B.1.1.7) domain (SARS-CoV-2); experiment: RBD/ACE2 blocking ELISA
[25] = target: SARS-CoV-2 RBD (P.1) domain (SARS-CoV-2); experiment: RBD/ACE2 blocking ELISA
[26] = target: SARS-CoV-2 RBD (B.1.351) domain (SARS-CoV-2); experiment: RBD-ACE2 competition ELISA; set-up: unit not given beside the values; remark: listed apart in the source
[27] = target: SARS-CoV-2 RBD (B.1.1.7) domain (SARS-CoV-2); experiment: RBD-ACE2 competition ELISA; set-up: unit not given beside the values; remark: listed apart in the source
[28] = target: SARS-CoV-2 RBD (P.1) domain (SARS-CoV-2); experiment: RBD-ACE2 competition ELISA; set-up: unit not given beside the values; remark: listed apart in the source
[29] = target: T1, SARS-CoV-2 Spike ectodomain (tri-S), …; experiment: competition ELISA, biotinylated tri-S to immobilized ACE2 ectodomain

B1: Cv2.3194 (recombinant human IgG1) (antibody)
heavy: EVQLVESGGGLIQPGGSLRLSCAASGITVTSNYMSWVRQAPGKGLEWVSVIYPGGSTFYADSVKGRFTISRDNSKNTLYLQMNSLRAEDTAVYYCARDLVVYGMDVWGQGTTVTVSSASTKGPSVFPLAPSSKSTSGGTAALGCLVKDYFPEPVTVSWNSGALTSGVHTFPAVLQSSGLYSLSSVVTVPSSSLGTQTYICNVNHKPSNTKVDKKVEPKSCDKTHTCPPCPAPELLGGPSVFLFPPKPKDTLMISRTPEVTCVVVDVSHEDPEVKFNWYVDGVEVHNAKTKPREEQYNSTYRVVSVLTVLHQDWLNGKEYKCKVSNKALPAPIEKTISKAKQPREPQVYTLPPSRDELTKNQVSLTCLVKGFYPSDIAVEWESNGQPENNYKTTPPVLDSDGSFFLYSKLTVDKSRWQQGNVFSCSVMHEALHNHYTQKSLSLSPGK
light: EIVLTQSPGTLSLSPGERATLSCRASQSVSSSYLAWYQQKPGQAPRLLIYGASSRATGIPGRFSGSGSGTDFTLTISRLEPEDFAIYYCQQGVTFGGGTKVEIKRTVAAPSVFIFPPSDEQLKSGTASVVCLLNNFYPREAKVQWKVDNALQSGNSQESVTEQDSKDSTYSLSSTLTLSKADYEKHKVYACEVTHQGLSSPVTKSFNRGEC
IC50 [1]: 0.206 µg/mL | IC90 [1]: 0.406 µg/mL | IC50 [2]: 0.212 µg/mL | IC90 [2]: 0.737 µg/mL | IC50 [3]: 0.412 µg/mL | IC90 [3]: 0.591 µg/mL | % inhibition (competition) [4]: 82 | triS Capt-ELISA [5]: 2.3 | AUC [6]: 4 | AUC [7]: 3 | AUC [8]: 3 | AUC [9]: 3 | AUC (RBD block.) [10]: 168 | AUC (RBD block.) [11]: 147 | AUC (RBD block.) [12]: 139 | % binding inhibition [13]: 97% | % inhibition (competition) [14]: 84 | AUC of blocking [15]: 181 | AUC [16]: 12 | AUC (RBD bind.) [16]: 12 | AUC (RBD bind.) [17]: 13 | AUC (RBD bind.) [18]: 13 | % inhibition (competition) [19]: 81 | Kd [20]: < 1 pM | % inhibition (competition) [21]: 86 | ELISA OD [22]: 3.6 OD | triS ELISA (AUC) [22]: 15.8 AUC | % binding inhibition [23]: 95% | % binding inhibition [24]: 97% | % binding inhibition [25]: 94% | AUC (RBD block.) [26]: 335 | AUC (RBD block.) [27]: 294 | AUC (RBD block.) [28]: 279 | IC50 [29]: 0.093 µg/mL | IC90 [29]: 0.212 µg/mL
